The results in this text go back to doi:10.1101/2025.07.21.665964.

A word on the Kd: it is the concentration at which binding is half-saturated. A lower Kd goes with tighter binding.

This experiment has as its target Avi-GST-CMG2^ABD. Description: BLI. On the technique in general: Biolayer interferometry detects binding as a change in optical thickness at a sensor tip.

Regarding “purified actin (polymerized F-actin) (from UniProt P60709 1-375) (natural protein)”, the Kd amounted to 10 nM.
